The source of these data is patent publication US20080274129A1 (BIOTECH SYNERGY, published 2008).

The target of assay [1] is T1, HLA-A2.1 molecule (purified) (human).
T1 construct: limits of the heavy chain and presence of b2m in the preparation are not described; also called HLA-A*0201; prototype HLA-A2.1 molecule
Nature of the assay: peptide binding to purified HLA-A2.1 molecule.

The target of assay [2] is HLA-A2 supertype alleles. Description: peptide binding to purified MHC molecules of the HLA-A2 supertype; count of alleles bound.

Non-standard residues stand in square brackets, D forms with d. No end group written: not given here. Aib = CC(C)(N)C(=O)O

KVAEIVHFL (also called peptide 1352.03) [MAGE-3.112I5]: in assay [1], the binding result was “binds”. In assay [2], this molecule registered a No. A2 Alleles Crossbound of 5 alleles.

As for IMIGHLVGV (also called peptide 1352.02) [CEA.691H5], the binding result in assay [1] is listed as “binds”. This molecule also gave a No. A2 Alleles Crossbound in assay [2] of 5 alleles.

Consider KL[Aib]PVQLWV (not fully specified) [p53.139L2B3], for which the No. A2 Alleles Crossbound in assay [2] came to 4 alleles.
